From US20150238603A1

Key:
Human CD38 (human) [1] = molecular target: Human CD38 (human) (UniProt P28907); assay: flow cytometry, QuantiBRITE system, LP1 cells
Human CD38 (human) [2] = molecular target: Human CD38 (human) (UniProt P28907); assay: flow cytometry, QuantiBRITE system, NCI-H929 cells
Human CD38 (human) [3] = molecular target: Human CD38 (human) (UniProt P28907); assay: flow cytometry, QuantiBRITE system, RPMI8226 cells

Sequence of UniProt P28907 (P28907 whole entry): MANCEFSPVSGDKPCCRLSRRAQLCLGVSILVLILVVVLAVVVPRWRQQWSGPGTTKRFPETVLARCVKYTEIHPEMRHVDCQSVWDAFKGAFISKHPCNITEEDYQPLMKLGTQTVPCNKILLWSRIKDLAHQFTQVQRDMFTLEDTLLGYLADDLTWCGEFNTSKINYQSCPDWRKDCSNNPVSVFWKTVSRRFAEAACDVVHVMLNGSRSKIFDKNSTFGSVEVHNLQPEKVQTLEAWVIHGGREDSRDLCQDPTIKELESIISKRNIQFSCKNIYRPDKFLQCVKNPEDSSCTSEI

QuantiBRITE CD38-PE antibody (Becton Dickinson GmbH, Clone HB7, CAT #342371)
Antibodies Bound Per Cell (ABC) (antibodies bound per cell) (Human CD38 (human) [1]): 125000
Antibodies Bound Per Cell (ABC) (antibodies bound per cell) (Human CD38 (human) [2]): 195000
Antibodies Bound Per Cell (ABC) (antibodies bound per cell) (Human CD38 (human) [3]): > 677000
